Legend:
[1] = molecular target: Tyrosine kinase receptor B (TrkB) (not stated (human SH-SY5Y or mouse HT22 cells cultured)) (UniProt Q16620); test: co-IP; control cells without added BDNF; native lysis; IP of 100 μL whole-cell lysate with anti-TrkB or anti-p75 antibody and protein A&G beads at 4 °C; Western blot with anti-BDNF antibody; band intensity in percent of the control WCL band
[2] = molecular target: p75 receptor (not stated (human SH-SY5Y or mouse HT22 cells cultured)) (UniProt P08138); test: as above
Chain of p75 receptor (not stated (human SH-SY5Y or mouse HT22 cells cultured)) (P08138 29-427): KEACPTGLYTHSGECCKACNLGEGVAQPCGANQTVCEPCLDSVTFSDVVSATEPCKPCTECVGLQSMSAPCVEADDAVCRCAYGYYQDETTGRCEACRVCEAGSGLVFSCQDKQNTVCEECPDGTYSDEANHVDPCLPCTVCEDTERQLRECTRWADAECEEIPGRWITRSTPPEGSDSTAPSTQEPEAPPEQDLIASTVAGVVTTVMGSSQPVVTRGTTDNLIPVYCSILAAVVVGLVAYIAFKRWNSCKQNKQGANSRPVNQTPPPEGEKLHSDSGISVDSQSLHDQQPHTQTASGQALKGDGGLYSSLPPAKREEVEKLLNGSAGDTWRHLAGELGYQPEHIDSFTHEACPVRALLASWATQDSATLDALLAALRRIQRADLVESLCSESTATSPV

[3] = molecular target: Tyrosine kinase receptor B (TrkB) (not stated (human SH-SY5Y or mouse HT22 cells cultured)) (UniProt Q16620); test: co-IP; cells incubated 48 h with BDNF 1.0 nM, alone or with Aβ42M/Aβ42O 0.2 μM and/or CA/EGCG 100 μM or IG3/BCP 2.0 μM; native lysis; IP with anti-TrkB or anti-p75 antibody and protein A&G beads at 4 °C; Western blot with anti-BDNF antibody; band intensity in percent of the control WCL band
[4] = molecular target: p75 receptor (not stated (human SH-SY5Y or mouse HT22 cells cultured)) (UniProt P08138); test: as above
[5] = molecular target: Amyloid-β protein 1–42 protofibrils (Aβ42P) (human) (UniProt P05067); test: ELISA; indirect ELISA; Aβ42 species or HSA (2.0 μM) coated on 96-well plates at 4 °C for 12 h, blocked with 5% nonfat dry milk in TBS; BDNF 20 pg/mL added, 37 °C, 24 h; bound BDNF detected with anti-BDNF antibody; binding rate in percent of the BDNF added; also run with CA/EGCG (50 μM) or IG3/BCP (2.0 μM)
[6] = molecular target: Amyloid-β protein 1–42 oligomers (Aβ42O) (human) (UniProt P05067); test: as above
[7] = molecular target: Amyloid-β protein 1–42 monomers (Aβ42M) (human) (UniProt P05067); test: as above
[8] = molecular target: Amyloid-β protein 1–42 fibrils (Aβ42F) (human) (UniProt P05067); test: as above

BDNF on Co-IP beads, percent of control WCL (no BDNF added) [1]	BDNF on Co-IP beads, percent of control WCL (no BDNF added) [2]	BDNF on Co-IP beads, percent of control WCL (BDNF added) [3]	BDNF on Co-IP beads, percent of control WCL (BDNF with Aβ42M and CA/EGCG) [3]	BDNF on Co-IP beads, percent of control WCL (BDNF with Aβ42M and IG3/BCP) [3]	BDNF on Co-IP beads, percent of control WCL (BDNF with Aβ42M) [3]	BDNF on Co-IP beads, percent of control WCL (BDNF with Aβ42O and CA/EGCG) [3]	BDNF on Co-IP beads, percent of control WCL (BDNF with Aβ42O and IG3/BCP) [3]	BDNF on Co-IP beads, percent of control WCL (BDNF with Aβ42O) [3]	BDNF on Co-IP beads, percent of control WCL (BDNF added) [4]	BDNF on Co-IP beads, percent of control WCL (BDNF with Aβ42M and CA/EGCG) [4]	BDNF on Co-IP beads, percent of control WCL (BDNF with Aβ42M and IG3/BCP) [4]	BDNF on Co-IP beads, percent of control WCL (BDNF with Aβ42M) [4]	BDNF on Co-IP beads, percent of control WCL (BDNF with Aβ42O and CA/EGCG) [4]	BDNF on Co-IP beads, percent of control WCL (BDNF with Aβ42O and IG3/BCP) [4]	BDNF on Co-IP beads, percent of control WCL (BDNF with Aβ42O) [4]	binding rate [5]	binding rate [6]	binding rate [7]	binding rate [8]	Substance
44.1%	31.9%																			Endogenous BDNF of the control cells (ligand)
		85%	89.3%	92%	88.3%	72.2%	73.4%	58.1%	70%	73.4%	83.2%	71.9%	62.1%	61.7%	64.3%	< 5%	> 10%	> 10%	< 5%	Human brain-derived neurotrophic factor (BDNF) (ligand)
